Molecular target: the molecule itself
Assay: FRET or BRET

B1: UL44(2-433), wild type, as CFP, YFP or RLuc fusion in HEK 293T cells (natural protein)
chain: DRKTRLSEPPTLALRLKPYKTAIQQLRSVIRALKENTTVTFLPTPSLILQTVRSHCVSKITFNSSCLYITDKSFQPKTINNSTPLLGNFMYLTSSKDLTKFYVQDISDLSAKISMCAPDFNMEFSSACVHGQDIVRESENSAVHVDLDFGVVADLLKWIGPHTRVKRNVKKAPCPTGTVQILVHAGPPAIKFILTNGSELEFTANNRVSFHGVKNMRINVQLKNFYQTLLNCAVTKLPCTLRIVTEHDTLLYVASRNGLFAVENFLTEEPFQRGDPFDKNYVGNSGKSRGGGGGGGSLSSLANAGGLHDDGPGLDNDLMNEPMGLGGLGGGGGGGGKKHDRGGGGGSGTRKMSSGGGGGDHDHGLSSKEKYEQHKITSYLTSKGGSGGGGGGGGGGLDRNSGNYFNDAKEESDSEDSVTFEFVPNTKKQKCG
  BRET ratio: 0.36 ± 0.1

From article doi:10.1101/2020.02.06.938233 (bioRxiv, 2020)
